Our source for the binding result and Kd values is PMC9638933.

The target of one series is Kucore;POL (Mycobacterium …, UniProt P9WKD9;P9WNV3 1-238;1-287, |). As to the kind of experiment: EMSA; supershift; EMSA: 50 mM Tris-HCl pH 8.0, 50 mM NaCl, 1 mM DTT, 5 mM MgCl2, 4% glycerol, 0.025 mg/ml BSA, 10 nM DNA, 30 C 20 min; FP: 10 mM Tris-HCl pH 8, 10 mM NaCl, 10% glycerol, 1 mM TCEP, 50 nM DNA, 30 C; ternary EMSA: 20 mM Tris-HCl pH 8.0, 5 mM MgCl2, 5% glycerol, 37 C; bridging: 20 mM Tris-HCl pH 7.5, 50 mM KCl, 5 mM EDTA, 1 mM DTT, 5% glycerol, 40 ug/ml BSA, room temperature. The conditions noted are these: protein: recombinant;recombinant; tags: His (Ni-NTA purified; pMCSG7);His (Ni-NTA purified); chain copies: 2;1; label: 5' 6-FAM on strand 1; blunt.
Chain of Kucore;POL (P9WKD9 1-238, chain 1 of 2): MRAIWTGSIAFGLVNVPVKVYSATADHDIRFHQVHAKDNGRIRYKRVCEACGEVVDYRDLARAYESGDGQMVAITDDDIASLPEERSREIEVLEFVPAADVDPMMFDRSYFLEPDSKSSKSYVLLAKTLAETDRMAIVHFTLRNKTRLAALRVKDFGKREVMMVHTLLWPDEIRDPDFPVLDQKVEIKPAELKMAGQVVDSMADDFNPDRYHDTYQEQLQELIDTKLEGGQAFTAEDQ
Chain of Kucore;POL (P9WNV3 1-287, chain 2 of 2): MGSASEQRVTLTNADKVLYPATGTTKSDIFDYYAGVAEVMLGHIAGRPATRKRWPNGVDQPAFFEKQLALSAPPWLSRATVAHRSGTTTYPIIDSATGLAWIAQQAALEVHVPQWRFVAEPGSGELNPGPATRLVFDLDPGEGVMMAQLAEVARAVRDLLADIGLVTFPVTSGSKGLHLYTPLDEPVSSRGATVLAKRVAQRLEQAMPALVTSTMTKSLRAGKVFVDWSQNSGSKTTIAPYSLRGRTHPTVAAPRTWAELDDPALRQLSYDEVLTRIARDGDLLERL

The target of a further series is KuWT;LIG (Mycobacterium …, UniProt P9WKD9;P9WNV3 1-273;454-759, |). The series is described as above. Particulars: protein: recombinant;recombinant; tags: His (Ni-NTA purified; pMCSG7);His (Ni-NTA purified); chain copies: 2;1; label: 5' 6-FAM on strand 1; blunt.
Chain of KuWT;LIG (P9WKD9 whole entry, chain 1 of 2): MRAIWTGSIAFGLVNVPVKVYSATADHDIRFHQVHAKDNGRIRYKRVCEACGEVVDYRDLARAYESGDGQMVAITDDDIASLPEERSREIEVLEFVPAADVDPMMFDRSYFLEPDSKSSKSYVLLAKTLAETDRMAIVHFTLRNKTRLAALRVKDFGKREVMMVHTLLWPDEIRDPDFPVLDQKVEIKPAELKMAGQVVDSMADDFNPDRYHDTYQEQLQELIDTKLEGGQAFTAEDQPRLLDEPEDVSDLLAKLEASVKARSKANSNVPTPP
Chain of KuWT;LIG (P9WNV3 454-759, chain 2 of 2): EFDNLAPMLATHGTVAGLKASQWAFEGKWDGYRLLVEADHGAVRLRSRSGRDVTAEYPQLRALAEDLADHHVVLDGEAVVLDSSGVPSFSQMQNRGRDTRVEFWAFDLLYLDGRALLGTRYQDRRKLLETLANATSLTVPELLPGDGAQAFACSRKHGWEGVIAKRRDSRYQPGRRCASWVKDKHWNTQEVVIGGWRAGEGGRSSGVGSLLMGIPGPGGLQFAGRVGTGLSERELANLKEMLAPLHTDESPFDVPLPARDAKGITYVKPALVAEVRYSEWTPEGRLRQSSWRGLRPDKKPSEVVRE
In the next series the target is Kumin;LIG (Mycobacterium …, UniProt P9WKD9;P9WNV3 1-259;454-759, |). Described as above. Particulars: protein: recombinant;recombinant; tags: His (Ni-NTA purified; pMCSG7);His (Ni-NTA purified); chain copies: 2;1; label: 5' 6-FAM on strand 1; blunt.
Chain of Kumin;LIG (P9WKD9 1-259, chain 1 of 2): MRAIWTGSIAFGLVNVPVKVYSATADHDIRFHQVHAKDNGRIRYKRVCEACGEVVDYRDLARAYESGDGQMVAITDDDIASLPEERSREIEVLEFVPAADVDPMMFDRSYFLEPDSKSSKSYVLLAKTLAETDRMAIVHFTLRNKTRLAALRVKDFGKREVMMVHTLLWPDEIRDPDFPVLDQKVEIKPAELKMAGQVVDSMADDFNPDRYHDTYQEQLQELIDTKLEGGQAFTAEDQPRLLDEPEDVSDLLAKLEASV
Chain of Kumin;LIG (P9WNV3 454-759, chain 2 of 2): as the sequence (P9WNV3 454-759, chain 2 of 2) above
The target of another series is Kucore;LIG (Mycobacterium …, UniProt P9WKD9;P9WNV3 1-238;454-759, |). The description is as above. The conditions noted are these: protein: recombinant;recombinant; tags: His (Ni-NTA purified; pMCSG7);His (Ni-NTA purified); chain copies: 2;1; label: 5' 6-FAM on strand 1; blunt.
Chain of Kucore;LIG (P9WNV3 454-759, one chain of several): as the sequence (P9WNV3 454-759, chain 2 of 2) above
The target in another series is KuWT;POL (Mycobacterium …, UniProt P9WKD9;P9WNV3 1-273;1-287, |). Described as above. Particulars: protein: recombinant;recombinant; tags: His (Ni-NTA purified; pMCSG7);His (Ni-NTA purified); chain copies: 2;1; label: 5' 6-FAM on strand 1; blunt.
Chain of KuWT;POL (P9WNV3 1-287, one chain of several): as the sequence (P9WNV3 1-287, chain 2 of 2) above
For a further series, the target named is Kumin;POL (Mycobacterium …, UniProt P9WKD9;P9WNV3 1-259;1-287, |). The description is as above. Particulars: protein: recombinant;recombinant; tags: His (Ni-NTA purified; pMCSG7);His (Ni-NTA purified); chain copies: 2;1; label: 5' 6-FAM on strand 1; blunt.
Chain of Kumin;POL (P9WNV3 1-287, one chain of several): as the sequence (P9WNV3 1-287, chain 2 of 2) above
The next series deals with LigD (UniProt P9WNV3 1-759). Kind of series: fluorescence polarization; EMSA: 50 mM Tris-HCl pH 8.0, 50 mM NaCl, 1 mM DTT, 5 mM MgCl2, 4% glycerol, 0.025 mg/ml BSA, 10 nM DNA, 30 C 20 min; FP: 10 mM Tris-HCl pH 8, 10 mM NaCl, 10% glycerol, 1 mM TCEP, 50 nM DNA, 30 C; ternary EMSA: 20 mM Tris-HCl pH 8.0, 5 mM MgCl2, 5% glycerol, 37 C; bridging: 20 mM Tris-HCl pH 7.5, 50 mM KCl, 5 mM EDTA, 1 mM DTT, 5% glycerol, 40 ug/ml BSA, room temperature. Particulars: protein: recombinant; tags: His (Ni-NTA purified; pMCSG7); label: 5' 6-FAM on strand 1; blunt.
Chain of LigD (P9WNV3 whole entry): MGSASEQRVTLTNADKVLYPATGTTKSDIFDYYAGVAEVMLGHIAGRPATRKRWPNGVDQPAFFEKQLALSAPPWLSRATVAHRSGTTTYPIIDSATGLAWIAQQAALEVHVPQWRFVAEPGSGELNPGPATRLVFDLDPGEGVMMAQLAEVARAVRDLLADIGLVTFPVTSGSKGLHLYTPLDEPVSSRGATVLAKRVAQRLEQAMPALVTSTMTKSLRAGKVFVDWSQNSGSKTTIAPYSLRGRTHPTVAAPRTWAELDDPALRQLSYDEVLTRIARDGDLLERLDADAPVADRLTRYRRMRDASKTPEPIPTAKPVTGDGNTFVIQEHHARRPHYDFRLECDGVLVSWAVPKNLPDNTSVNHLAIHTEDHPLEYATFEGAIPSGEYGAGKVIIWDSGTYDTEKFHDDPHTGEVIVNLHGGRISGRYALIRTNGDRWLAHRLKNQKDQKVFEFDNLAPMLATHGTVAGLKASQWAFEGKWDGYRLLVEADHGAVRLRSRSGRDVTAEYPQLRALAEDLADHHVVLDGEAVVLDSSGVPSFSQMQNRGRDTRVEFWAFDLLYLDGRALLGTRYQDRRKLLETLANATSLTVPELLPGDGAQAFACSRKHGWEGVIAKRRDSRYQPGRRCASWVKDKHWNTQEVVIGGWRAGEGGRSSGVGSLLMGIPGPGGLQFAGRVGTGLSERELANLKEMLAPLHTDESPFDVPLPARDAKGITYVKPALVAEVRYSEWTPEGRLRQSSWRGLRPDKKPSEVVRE

B1: 40 bp dsDNA (dsDNA)
DNA 1: CAGGGTAAGTGTGGAGGTGTAGGGAAGGGAATGTTGTCTG
DNA 2: CAGACAACATTCCCTTCCCTACACCTCCACACTTACCCTG
For B1, the binding result in the series with Kucore;POL, with KuWT;LIG, with Kumin;LIG, in the series with Kucore;LIG, in the series with KuWT;POL and with Kumin;POL was “binds” in each case. In addition, the Kd with LigD was determined as 350 ± 30 nM.
